In publication PMC4411306, “Osmosensing and scaffolding functions of the oligomeric four-transmembrane domain osmosensor Sho1” (Nature Communications, 2015):
Substitutions are numbered along the chain they refer to. In names and notes the source's numbering stands.

B1: HA-Sho1* T66C I94C (natural protein, Saccharomyces cerevisiae, UniProt P40073 1-367, looked up)
chain: MSISSKIRPTPRKPSRMATDHSFKMKKFYADPFAISSISLAIVSWVIAIGGSISSASTNESFPRFCWWGIVYQFLIISSLMLFYSFDLVDHYRCFITTSIAVAFVYNTNSATNLVYADGPKKAAASAGVILLSIINLIWILYYGGDNASPTNRWIDSFSIKGIRPSPLENSLHRARRRGNRNTTPYQNNVYNDAIRDSGYATQFDGYPQQQPSHTNYVSSTALAGFENTQPNTSEAVNLHLNTLQQRINSASNAKETNDNSNNQTNTNIGNTFDTDFSNGNTETTMGDTLGLYSDIGDDNFIYKAKALYPYDADDDDAYEISFEQNEILQVSDIEGRWWKARRANGETGIIPSNYVQLIDGPEEMHR
notes: Sho1, S. cerevisiae, Cys-less (C78S C85S) with Cys in TM2 and TM3; source: S. cerevisiae KT079 (sho1Δ), GAL1 promoter, in membrane fraction; not shown: HA, N-terminal, kept
B2: HA-Sho1* T66C T112C (natural protein, Saccharomyces cerevisiae, UniProt P40073 1-367, looked up)
chain: B1 chain with C94I, T112C
notes: Sho1, S. cerevisiae, Cys-less (C78S C85S) with Cys in TM2 and TM3; also called T/C T/C; source: S. cerevisiae KT079 (sho1Δ), GAL1 promoter, in membrane fraction; not shown: HA, N-terminal, kept
B3: HA-Sho1* I94C T112C (natural protein, Saccharomyces cerevisiae, UniProt P40073 1-367, looked up)
chain: B1 chain with C66T, T112C
notes: Sho1, S. cerevisiae, Cys-less (C78S C85S) with two Cys in TM3; source: S. cerevisiae KT079 (sho1Δ), GAL1 promoter, in membrane fraction; not shown: HA, N-terminal, kept
B4: HA-Sho1* G50C A124C (natural protein, Saccharomyces cerevisiae, UniProt P40073 1-367, looked up)
chain: B1 chain with G50C, C66T, C94I, A124C
notes: Sho1, S. cerevisiae, Cys-less (C78S C85S) with Cys in TM1 and TM4; also called G/C A/C; source: S. cerevisiae KT079 (sho1Δ), GAL1 promoter, in membrane fraction; not shown: HA, N-terminal, kept
B5: HA-Sho1* T66C (natural protein, Saccharomyces cerevisiae, UniProt P40073 1-367, looked up)
chain: B1 chain with C94I
notes: Sho1, S. cerevisiae, Cys-less (C78S C85S) with a single Cys in TM2; also called Sho1-FL-T66C; source: S. cerevisiae KT079 (sho1Δ), GAL1 promoter, in membrane fraction; not shown: HA, N-terminal, kept
B6: HA-Sho1* T112C (natural protein, Saccharomyces cerevisiae, UniProt P40073 1-367, looked up)
chain: B1 chain with C66T, C94I, T112C
notes: Sho1, S. cerevisiae, Cys-less (C78S C85S) with a single Cys in TM3; source: S. cerevisiae KT079 (sho1Δ), GAL1 promoter, in membrane fraction; not shown: HA, N-terminal, kept
B7: HA-Sho1* G50C (natural protein, Saccharomyces cerevisiae, UniProt P40073 1-367, looked up)
chain: B1 chain with G50C, C66T, C94I
notes: Sho1, S. cerevisiae, Cys-less (C78S C85S) with a single Cys in TM1; source: S. cerevisiae KT079 (sho1Δ), GAL1 promoter, in membrane fraction; in intact cells; not shown: HA, N-terminal, kept
B8: HA-Sho1*-A124C (natural protein, Saccharomyces cerevisiae, UniProt P40073 1-367, looked up)
chain: B1 chain with C66T, C94I, A124C
notes: Sho1, S. cerevisiae, Cys-less (C78S C85S) with a single Cys in TM4; source: S. cerevisiae KT079 (sho1Δ), GAL1 promoter, in membrane fraction; S. cerevisiae KY590-1, GAL1 promoter, in intact cells, then lysate; not shown: HA, N-terminal, kept
B9: HA-Sho1* I53C (natural protein, Saccharomyces cerevisiae, UniProt P40073 1-367, looked up)
chain: B1 chain with I53C, C66T, C94I
notes: Sho1, S. cerevisiae, Cys-less (C78S C85S) with a single Cys; source: S. cerevisiae KT079 (sho1Δ), GAL1 promoter, in membrane fraction; not shown: HA, N-terminal, kept
B10: HA-Sho1* S54C (natural protein, Saccharomyces cerevisiae, UniProt P40073 1-367, looked up)
chain: B1 chain with S54C, C66T, C94I
notes: as for B9
B11: HA-Sho1* V105C (natural protein, Saccharomyces cerevisiae, UniProt P40073 1-367, looked up)
chain: B1 chain with C66T, C94I, V105C
notes: as for B9
B12: HA-Sho1* N109C (natural protein, Saccharomyces cerevisiae, UniProt P40073 1-367, looked up)
chain: B1 chain with C66T, C94I, N109C
notes: as for B9
B13: HA-Sho1* A123C (natural protein, Saccharomyces cerevisiae, UniProt P40073 1-367, looked up)
chain: B1 chain with C66T, C94I, A123C
notes: as for B9

Key:
[1] = molecular target: the molecule itself; assay: cross-linking; detergent-free membrane fraction of sho1Δ cells expressing a Cys mutant of HA-Sho1*; 0.2 mM bifunctional thiol crosslinker (o-PDM, p-PDM or BMH), 20 min, 25 °C; SDS–PAGE, anti-HA blot
[2] = molecular target: the molecule itself; assay: cross-linking; membrane fraction of cells expressing a single-Cys mutant of HA-Sho1*; homo-trifunctional crosslinker TMEA; SDS–PAGE, anti-HA blot
[3] = molecular target: the molecule itself; assay: cross-linking; spontaneous disulfide bond formation: membrane fractions without chemical crosslinker, SDS–PAGE without 2-ME, anti-HA blot

Protein | stoichiometry N [1] | stoichiometry N [2] | stoichiometry N [3]
B1 | 3 |  | 
B2 | 3 |  | 
B3 | 3 |  | 
B4 | 2 |  | 
B5 |  | 3 | 
B6 |  | 3 | 
B7 |  | 2 | 
B8 |  | 2 | 
B9 |  |  | 2
B10 |  |  | 2
B11 |  |  | 2
B12 |  |  | 2
B13 |  |  | 2
